Results: patent US20150232562A1 (Ablynx, published 2015)
Numbering of substitutions follows the chain as printed.

B1: 12D11/1-123 (VHH)
VHH: EVQLVESGGGLVQTGGSLRLSCAASGRTFSGSRMGWFRQAPGKEREFVAAIRWSGGITWYAESVKSRFTISRDNTKNTIDLQINSLKPEDTAVYYCAADVIYKNIGSGSFDYWGQGTQVTVSS
notes: C-term myc-His6 tag
B2: 12D14/1-123 (VHH)
VHH: B1 VHH with T14A, F37L, I51V, S66G
notes: C-term myc-His6 tag
B3: 13G61/1-118 (VHH)
VHH: EVQLVESGGGVVQAGGSLRLSCAPSGRTFSSYVMGWVRQAPGKAREFVAGITRNSGRTRYADSVKGRFTISRDNADNTVTLQMNSLKPEDTAVYYCAGGIDLYTFHYFGQGTQVTVSS
notes: C-term myc-His6 tag
B4: 14H41/1-118 (VHH)
VHH: B3 VHH with V11L, G56I, H106D
notes: C-term myc-His6 tag
B5: 13E61/1-123 (VHH)
VHH: EVQLVESGGGLVQAGGSLRLSCTASGQTFNMGWFRQAPGKEREFVAAISWSQYNTKYADSVKGRFTISRDNAINSLYLQMDTLKPEDTAVYYCAATNRWFSAVYDLPSRYTYWGQGTQVTVSS
notes: C-term myc-His6 tag
B6: 12C71/1-125 (VHH)
VHH: EVQLVESGGGLVQAGGSLRLSCTASGGTFGSYALGWFRQSPGKERESVAAIDWDGSRTQYADSVKGRFTISRENVKDTMYLQMNSLQAEDTGVYYCVRSRHSGNTLSFSLKYDYWGQGTQVTVSS
notes: C-term myc-His6 tag
B7: 12D92/1-123 (VHH)
VHH: EVQLVESGGGLVQAGGSLRLSCAASGRTYNMAWFRQAPGKEREFVAAMNWSGGSTKYAESVKGRFTISRANDNNPLYLQMNTLKPEDTAVYYCAATNRWYTGVYDLPSRYEYWGQGTQVTVSS
notes: C-term myc-His6 tag
B8: 12C111/1-123 (VHH)
VHH: EVQLVESGGGLVQAGGSLRLSCAVSGLTFSSYAMGWFRQAPGKVREFVATISRSGGRTSYADSVKGRFIVSRDNAKNTADLQMNDLKPEDTAVYYCGASKWYGGFGDTDIEYWGQGTQVTVSS
notes: C-term myc-His6 tag
B9: 22B55/1-123 (VHH)
VHH: B8 VHH with S31T, D85E
notes: C-term myc-His6 tag
B10: 12D31/1-115 (VHH)
VHH: EVQLVESGGGLVQPGGSLRLSCAASRNIFDFNDMGWYRQGPGKEREFVALINVGGVAKYEDSVKGRFTISRDNAENTVYLQMNNLKPEDMAVYYCNARILSRNYWGQGNQVTVSS
notes: C-term myc-His6 tag
B11: 22C51/1-121 (VHH)
VHH: EVQLVESGGGLVQAGASLRLSCAASGRTFSRYDIGWFRQAPGKGREFVAAINWSGGTTSFGDSVKGRFTISRDNAKNTVYLQMNSLKPEDTAVYYCAALRSWPRGVDSGSWGQGTQVTVSS
notes: C-term myc-His6 tag
B12: 11B121/1-127 (VHH)
VHH: EVQLVESGGGLVQPGGSLRLSCAASGSSASINTMGWYRQAPGEQRELVAEITEGGIINYTDSVKGRFTISRDNAKNTVYLEMNNLKPEDTAVYYCNADRALYRNYSDGRYYTGYDYWGQGTQVTVSS
notes: C-term myc-His6 tag
B13: 14H121/1-113 (VHH)
VHH: EVQLVESGGGLVQPGGSLRLSCAASGITFRFKAMGWFRQGPGKRRELVARIAGGSTNYADSVKGRFTISRDDAKNTVFLQMNSLKPEDTAVYYCNVDGPFGNWGQGTQVTVSS
notes: C-term myc-His6 tag
B14: 11A43/1-123 (VHH)
VHH: EVQLVESGGGLVQAGGSLRLSCAASGSIFRVNHMGWYRQAPGKQREFVAAITSDHITWYADAVKGRFTISRDNAKNTVTLQMNSLRPEDTAVYYCAADPLLFYGVGSADVDYWGQGTQVTVSS
notes: C-term myc-His6 tag
B15: 12C121/1-126 (VHH)
VHH: EVQLVESGGDLVQPGESLRLSCAVSGVTVDYSGIGWFRQAPEKEREAVSCIESGDGTTTYVDSVKGRFTISRDNAKNAVYLQMNSLKPEDTGVYYCATAVFVDSGDFSVCRGVGYWGKGTQVTVSS
notes: C-term myc-His6 tag
B16: 11B71/1-126 (VHH)
VHH: EVQLVESGGGLVQAGGSLRLSCAASGRTFERYAMGWFRQAPGKEREFVATISWSGGRDTVYADSVKGRFTISRDNAKNTVYLQMNSLKPEDTAVYYCAAHKRTYELGAHSTDFGSWGQGTQVTVSS
notes: C-term myc-His6 tag
B17: 14H81/1-125 (VHH)
VHH: EVQLVESGGGLVQAGGSLSLSCAASGRTFSNYRMAWFRQAPRKEREFVAAISRSGESTYFADSMKGRFTISRDNTESTGYLQMNNLKPEDTAVYYCAASWDHGDYVDGGFFYDYWGQGTQVTVSS
notes: C-term myc-His6 tag
B18: 22B71/1-114 (VHH)
VHH: EVQLVESGGAFVQPGGSLRLSCAASGSDVWFNVMGWYRQGPGQQLELVASITYGGNINYGDPVKGRFSISRDNALKTVYLQMNSLKPEDTAVYYCYADLPSRLWGQGTQVTVSS
notes: C-term myc-His6 tag
B19: 11B51/1-127 (VHH)
VHH: EVQLVESGGGLVQAGGSLRLSCAASGGTFSGRGMGWFRQAPGKEREFVAAVSWSGGNTYYADSVKGRFTISRDNAKSTVYLQMDSLKPEDTAVYYCAASRRFYSGLYYYTDDAYEYWGQGTQVTVSS
notes: C-term myc-His6 tag
B20: 12C91/1-121 (VHH)
VHH: EVQLVESGGGLVQAGGSLRLSCVASGRTSSYYHMAWFRQAPGKEREFIAAINLSSGSTYYPDSVKGRFTISRGNAKNTVNLQMNSLKPEDTAVYYCAADNYRDSYLEYDYWGQGTQVTVSS
notes: C-term myc-His6 tag
B21: 13E101/1-128 (VHH)
VHH: EVQLVESGGGLVQAGGSLRLSCAVSGRTFNNDHMGWFRQAPGTERELVAATGRRGGPTYYADSVKGRFTISRDNAESTVYLQMNSLKAEDTAVYYCAANRYYCSTYGCLSTPRQYDYWGQGTQVTVSS
notes: C-term myc-His6 tag
B22: 11C11/1-121 (VHH)
VHH: EVQLVESGGGLVQAGGSLRLSCAASGRTFSAYAMGWFRQAPGKERESVATIRWTGGSSSTSYADSVKGRFTISKNTAENTVYLQMNSLKPEDTAVYYCAVLLTVWDTYKYWGQGTQVTVSS
notes: C-term myc-His6 tag
B23: 21A121/1-123 (VHH)
VHH: EVQLVESGGGLVQAGGSLRLSCTASGRAFNMGWFRQAPGKEREFVAGVNWGGGSTKVADSVKERFTISRDYDNSPVYLQMNTLKPEDTAVYYCAATSRWYSAVYDLPTRYDYWGQGTQVTVSS
notes: C-term myc-His6 tag
B24: 21A31/1-125 (VHH)
VHH: EVQLVESGGGLVQAGGSLRLSCAASEPTFSSVAMGWFRQGPGKEREFAATITWSGDSTYVTDSVKGRFTISRDNARNTAYLQMDSLRPEDTAVYSCAARRWSGTLSLFDNEYYYWGQGTQVTVSS
notes: C-term myc-His6 tag
B25: 12C81/1-117 (VHH)
VHH: EVQLVESGGGLVQPGGSLRLSCAGSGNIVRDNTMAWYRQAPGNQRDLVATINVGGGTYYAGPVKGRFTISRDNAKNSVYLQMNSLKPEDTSVYYCNVISGLVQRDYWGQGTQVTVSS
notes: C-term myc-His6 tag
B26: 11B81/1-126 (VHH)
VHH: EVQLVESGGGLVQAGGSLRLSCAASGRPVNNYIMGWFRQALGQGREFVAAINRNGATAAYADSVKGRFTISRDNAEDLLYLQMNLLKPEDTAVYYCAANSDSGFDSYSVWAAYEYWGQGTQVTVSS
notes: C-term myc-His6 tag
B27: 12D102/1-118 (VHH)
VHH: EVQLVESGGGLVQPGGSLRLSCAASGSSLSFNAMGWSREAPGKRRELVARIISDDSTLYADSVKGRFTISRDYAKNTAYLQMNSLKPEDTAVYYCVADVRDSIWRSYWGQGTQVTVSS
notes: C-term myc-His6 tag
B28: 13G51/1-127 (VHH)
VHH: EVQLVESGGGLVQAGGSLSLSCAASGGTFNGRAVGWFRQAPGEEREFVTGISWSGGSTDYADSVKGRFTISRDNSKNTVSLQMNSLKPEDTAVYYCAASRRFYSGLVYYSVDAYENWGQGTQVTVSS
notes: C-term myc-His6 tag
B29: 11B21/1-124 (VHH)
VHH: EVQLVESGGGLVQAGGSLRLSCAASGRTFSMYLMGWFRQAPGKEREFVSTINRRGGNTYYADSVKGRFTISRDNARNTVYLQMNSLKPEDTAVYYCAAGGHLLGYDVQWEPDYWGQGTQVTVSS
notes: C-term myc-His6 tag
B30: 22B85/1-120 (VHH)
VHH: EVQLVESGGGLVRPGGSLRLSCATSGSDIGINAMGWYRQAPGNQRELVATITGSTGTTYADSVKGRFAISRDGAKNTVYLQMDSLKPEDTAVYYCNLRVYTGTYGGRNYWGQGTQVTVSS
notes: C-term myc-His6 tag
B31: 12C42/1-124 (VHH)
VHH: EVQLVESGGGLVQAGGSLRLSCAASGRTFSRYAMHWFRQAPGSERDFVAGISWDGGSTFYANSVKGRFTISRDNAKNMVYLQMNSLKPEDTAVYYCAAAGSAGPPSIDRQYDYWGQGTQVTVSS
notes: C-term myc-His6 tag
B32: 11A52/1-120 (VHH)
VHH: EVQLVESGGGLVQAGGSLRLSCAASGRALSNYAMRWFRQAPGKEREFVATINWSGSHTDYADSVKGRFTISRDNAENTVYLQMNSLTPEDTAVYYCASGWGATQAQSGFWGQGTQVTVSS
notes: C-term myc-His6 tag
B33: 14H111/1-120 (VHH)
VHH: B32 VHH with S30I, N31S, Y32F, T50A, S56T, Q82L, T87I, S98T, S107H
notes: C-term myc-His6 tag
B34: 11B12/1-118 (VHH)
VHH: EVQLVESGGGLVQAGGSLRLSCAASGRALINYAMGWFRQAPGKEREFVSAINWSGSHTDYGDSVKGRFAISRDNAKNTVYLQMHSLKPEDTAVYHCATGYSLPAFDSWGPGTQVTVSS
notes: C-term myc-His6 tag
B35: 13F101/1-124 (VHH)
VHH: EVQLVESGGGLVQAGGSLRLSCQLSGGTVSDLHMGWFRQAPGKEREFVGFTRWPSITYIAEHVKGRFTISRDNAKNTVYLQMNSLEREDTAVYYCAADRSYSIDYRHPDSYSYWGQGTQVTVSS
notes: C-term myc-His6 tag

target: T1, recombinant human ErbB2/Fc chimera (human, UniProt P04626 23-652); assay: ELISA, coated ErbB2/Fc
T1 construct: bought from R&D Systems; also called rhErbB2-Fc; rhErb2-Fc; Fc part of the bought chimera not given; not described

binding result | Binder
binds | B1
binds | B2
binds | B3
binds | B4
binds | B5
binds | B6
binds | B7
binds | B8
binds | B9
binds | B10
binds | B11
binds | B12
binds | B13
binds | B14
binds | B15
binds | B16
binds | B17
binds | B18

binding result | Binder
binds | B19
binds | B20
binds | B21
binds | B22
binds | B23
binds | B24
binds | B25
binds | B26
binds | B27
binds | B28
binds | B29
binds | B30
binds | B31
binds | B32
binds | B33
binds | B34
binds | B35
